Results as given in patent publication US10772972B2, “Anti-STEAP2 antibody drug conjugates, and compositions and uses thereof” (Regeneron Pharmaceuticals, Inc., priority 2016, dated 2020).

Tests used:
[1] = test system: FADU cells (STEAP2 negative); test: FACS binding to STEAP2-negative FADU cells; conditions: human-Fc antibodies
Method: (§1) The ability of anti-STEAP2 antibodies to selectively bind to human six-transmembrane epithelial antigen of prostate 2 (STEAP2) endogenously expressing cell lines was determined via FACS analysis.
(§2) Briefly, 1×10^5 cells were incubated with 10 μg/ml of anti STEAP2 antibodies, or isotype control antibodies for 30 min on ice in antibody dilution buffer. Following one wash with antibody dilution buffer, cells were incubated with 10 μg/ml of PE conjugated anti-human or anti mouse Fc secondary antibodies for 30 min on ice. Following one additional wash, samples were incubated with Cytofix (1% formaldehyde) for 20 minutes. After one final wash, samples were filtered through a Pall 96 well filtration block, run on a Hypercyt® cytometer and analyzed in ForeCyt™ (IntelliCyt, Albuquerque, N. Mex.). Mean fluorescence intensities (MFI) were expressed as fold change above unstained levels (background). The average fold above background at antibody concentrations of 100-300 nM were determined. For cell binding EC50 determinations, mAb concentrations ranged from 300 nM to […] and EC50 values were determined from a four-parameter logistic equation over a 12-point response curve (GraphPad Prism).

[2] = test system: SKBR3 cells (STEAP2 negative); test: FACS binding to STEAP2-negative SKBR3 cells; conditions: human-Fc antibodies
Method: as §1, §2

[3] = test system: Raji cells (STEAP2 negative); test: FACS binding to STEAP2-negative Raji cells; conditions: human-Fc antibodies
Method: as §1, §2

[4] = test system: C4-2 cells (high-STEAP2 expressing); test: Internalization and total binding on C4-2 cells (imaging, qualitative score); format: cell-based, human; set-up: key: − (no internalization or binding); +(weak internalization or binding); ++(moderate internalization or binding); +++(robust internalization or binding); conditions: 10 μg/ml antibody
Method: Briefly, 20,000 C4-2 cells were seeded in PDL coated 96 well plates. The next day, cells were incubated with anti-human STEAP2 antibodies (10 μg/ml) for 30 min on ice followed by two PBS washes. Cells were then incubated with alexa488-conjugated anti-hFc Fab secondary antibody for 30 minutes on ice, followed by two additional PBS washes. Antibodies were allowed to internalize for 1 h at 37° C. in internalization buffer (PBS+2% FBS) or were maintained at 4° C. Cells were fixed in 4% formaldehyde, nuclei were stained with DRAQ5 (Cell signaling), and images were acquired on the ImageXpress micro XL (Molecular Devices).
A qualitative visual assessment of the total binding intensity and the intensity of antibodies that had internalized into vesicles was performed and scored according to the following criteria: − (no internalization or binding), +(weak internalization or binding), ++(moderate internalization or binding) and +++(robust internalization or binding).

[5] = target: T1, hSTEAP1 fused to GFP (Homo sapiens, UniProt Q9UHE8); test: Specificity: binding to HEK293 cells transfected with hSTEAP1-GFP; set-up: key: Wells with GFP positive cells that bound anti STEAP2 antibodies were scored as positive (+); those that did not bind anti STEAP2 antibodies were scored as negative (−); conditions: transient transfection, 48 h
T1 construct: expressed in transfected cells; host or cells: HEK293
Method: (§3) Selected STEAP2 antibodies were then tested for binding to other human (h) STEAP family members (STEAP1, STEAP3, and STEAP4). To assess anti STEAP2 antibody specificity, plasmid constructs expressing hSTEAP1, hSTEAP2, hSTEAP3 or hSTEAP4 fused to Green Fluorescent Protein (GFP) were transiently introduced into HEK293 cells via lipofectamine 2000 based methodology. After 48 h, transiently transfected cells were stained with anti STEAP2 antibodies and imaged as described above for the internalization assay.

[6] = target: T2, hSTEAP2 fused to GFP (Homo sapiens, UniProt Q8NFT2); test: Specificity: binding to HEK293 cells transfected with hSTEAP2-GFP; set-up: key: Wells with GFP positive cells that bound anti STEAP2 antibodies were scored as positive (+); those that did not bind anti STEAP2 antibodies were scored as negative (−); conditions: transient transfection, 48 h
T2 construct: expressed in transfected cells; host or cells: HEK293
T2 sequence (Q8NFT2 1-490): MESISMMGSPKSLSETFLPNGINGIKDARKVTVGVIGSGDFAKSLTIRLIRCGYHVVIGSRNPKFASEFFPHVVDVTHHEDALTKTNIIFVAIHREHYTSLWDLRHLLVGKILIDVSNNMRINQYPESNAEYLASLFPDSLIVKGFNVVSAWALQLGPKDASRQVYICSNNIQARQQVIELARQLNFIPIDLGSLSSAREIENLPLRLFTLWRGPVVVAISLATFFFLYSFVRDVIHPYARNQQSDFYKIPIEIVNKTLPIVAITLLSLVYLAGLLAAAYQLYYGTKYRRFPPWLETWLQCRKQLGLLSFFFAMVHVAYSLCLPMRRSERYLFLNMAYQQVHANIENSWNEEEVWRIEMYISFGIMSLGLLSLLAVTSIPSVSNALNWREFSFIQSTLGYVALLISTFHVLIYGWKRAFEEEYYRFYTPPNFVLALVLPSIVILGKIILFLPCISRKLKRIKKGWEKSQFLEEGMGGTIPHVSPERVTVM
Method: as §3

[7] = target: T3, hSTEAP3 fused to GFP (Homo sapiens, UniProt Q658P3); test: Specificity: binding to HEK293 cells transfected with hSTEAP3-GFP; set-up: key: Wells with GFP positive cells that bound anti STEAP2 antibodies were scored as positive (+); those that did not bind anti STEAP2 antibodies were scored as negative (−); conditions: transient transfection, 48 h
T3 construct: expressed in transfected cells; host or cells: HEK293
T3 sequence (Q658P3 1-488): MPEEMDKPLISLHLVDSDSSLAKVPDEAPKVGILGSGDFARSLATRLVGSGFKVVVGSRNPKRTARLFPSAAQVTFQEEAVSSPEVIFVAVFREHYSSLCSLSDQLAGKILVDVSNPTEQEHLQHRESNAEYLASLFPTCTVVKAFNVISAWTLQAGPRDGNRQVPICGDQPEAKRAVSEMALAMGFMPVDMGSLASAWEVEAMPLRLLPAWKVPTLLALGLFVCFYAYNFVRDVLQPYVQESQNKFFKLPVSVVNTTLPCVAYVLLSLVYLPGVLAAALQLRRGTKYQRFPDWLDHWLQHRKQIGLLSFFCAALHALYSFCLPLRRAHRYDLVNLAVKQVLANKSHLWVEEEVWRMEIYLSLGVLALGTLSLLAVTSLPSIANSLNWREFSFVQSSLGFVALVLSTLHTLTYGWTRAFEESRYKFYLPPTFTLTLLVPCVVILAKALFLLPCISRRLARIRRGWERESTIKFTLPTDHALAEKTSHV
Method: as §3

[8] = target: T4, hSTEAP4 fused to GFP (Homo sapiens, UniProt Q687X5); test: Specificity: binding to HEK293 cells transfected with hSTEAP4-GFP; set-up: key: Wells with GFP positive cells that bound anti STEAP2 antibodies were scored as positive (+); those that did not bind anti STEAP2 antibodies were scored as negative (−); conditions: transient transfection, 48 h
T4 construct: expressed in transfected cells; host or cells: HEK293
T4 sequence (Q687X5 1-459): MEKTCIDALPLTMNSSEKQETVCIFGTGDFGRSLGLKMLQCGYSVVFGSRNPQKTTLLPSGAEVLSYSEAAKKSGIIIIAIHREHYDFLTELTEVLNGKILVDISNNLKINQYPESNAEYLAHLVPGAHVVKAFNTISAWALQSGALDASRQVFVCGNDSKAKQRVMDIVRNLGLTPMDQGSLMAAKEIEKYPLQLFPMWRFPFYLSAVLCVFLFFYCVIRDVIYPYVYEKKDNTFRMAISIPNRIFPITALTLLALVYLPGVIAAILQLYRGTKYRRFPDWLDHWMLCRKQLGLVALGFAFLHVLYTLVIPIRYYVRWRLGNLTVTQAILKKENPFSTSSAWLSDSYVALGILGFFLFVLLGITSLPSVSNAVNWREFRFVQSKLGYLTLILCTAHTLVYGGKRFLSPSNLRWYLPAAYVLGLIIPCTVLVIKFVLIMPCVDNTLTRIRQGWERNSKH
Method: as §3

[9] = test system: PC3_STEAP2/1 cells (PC3 engineered to express a STEAP2/1 chimeric construct); test: FACS binding titration of STEAP2xCD3 bispecifics on PC3_STEAP2/1 cells; set-up: species or system human; conditions: 66.6 nM to 0.001 nM, 30 minutes at 4° C.
Method: (§4) FACS Binding Titration on Jurkat Cells, PC3_STEAP2/1 Cells and cynomolgus T Cells: Flow cytometric analysis was utilized to determine binding of STEAP2×CD3 bispecific antibodies to Jurkat, PC3_STEAP2/1 chimeric and cynomolgus T cells, followed by detection with a phycoerythrin (PE)-labeled anti-human IgG antibody. Briefly, 2×10^5 cells/well were incubated for 30 minutes at 4° C. with a serial dilution of STEAP2×CD3 bispecific antibodies or control antibody (a human IgG1 antibody that binds a feline antigen with no cross-reactivity to STEAP2 or human or cynomolgus CD3) ranging from 66.6 nM to 0.001 nM. After incubation, the cells were washed twice with cold PBS containing 1% filtered FBS and a PE-conjugated anti-human secondary antibody was added to the cells and incubated for an additional 30 minutes. Wells containing no antibody or secondary antibody only were used as a control. After incubation, cells were washed, re-suspended in 200 μL cold PBS containing 1% filtered FBS and analyzed by flow cytometry on a BD FACS Canto II.

[10] = test system: cynomolgus T cells; test: FACS binding titration of STEAP2xCD3 bispecifics on cynomolgus T cells; conditions: 66.6 nM to 0.001 nM, 30 minutes at 4° C.
Method: as §4

[11] = test system: monkey PBMCs; test: T cell proliferation assay, cynomolgus PBMC; format: cell-based; conditions: donor mk8781M; anti-CD28 500 ng/mL, 72 hours; read-out: Cyno PBMC Proliferation [M] (donor)
Method: Thawed human or freshly isolated monkey PBMCs (50,000 cells/well) were incubated with 3-fold (human, concentration range: 5E-10M to 2.82E-15M; cynomolgus, concentration range: 1E-09M to 4.57E-13M) serial dilutions of STEAP2×CD3 bispecifics or isotype control in complete medium (RPMI supplemented with 10% FBS, 100 U/mL penicillin, 100 μg/mL streptomycin, 292 μg/mL L-glutamine) and a fixed concentration (human: 200 ng/mL, cyno: 500 ng/mL) of a commercial anti-CD28 antibody (Biolegend, Catalog #302914) in white flat bottom 96-well plates for 72 hours at 37° C. Isolated monkey PBMCs were from two donors (identified as mk8781M or mk9381M). Following incubation, CellTiter Glo® (Promega, Cat #7573) was added and luminescence, as readout for cell viability, was measured using a VICTOR X5 multi-label plate reader. Cell titer was calculated by dividing the luminescence of stimulated cells by the baseline luminescence of unstimulated cells.

T1 sequence (Q9UHE8 whole entry, the tested form may be a part): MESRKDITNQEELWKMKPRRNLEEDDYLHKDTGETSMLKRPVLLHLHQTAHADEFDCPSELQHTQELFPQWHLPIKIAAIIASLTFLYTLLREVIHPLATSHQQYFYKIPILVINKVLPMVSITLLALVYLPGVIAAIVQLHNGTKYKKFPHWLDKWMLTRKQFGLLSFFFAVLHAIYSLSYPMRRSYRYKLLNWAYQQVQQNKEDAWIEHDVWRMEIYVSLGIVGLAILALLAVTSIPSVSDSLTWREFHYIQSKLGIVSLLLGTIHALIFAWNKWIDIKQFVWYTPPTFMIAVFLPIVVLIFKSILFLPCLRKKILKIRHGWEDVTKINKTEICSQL

B1: H1H7972P: anti-STEAP2 antibody, HCVR/LCVR SEQ ID NOs 186/194 (antibody, V domains shown)
VH: QVQLQQSGPGLVKPSQTLSLTCAISGDSVSSNSAAWNWIRQSPSRGLEWLGRTYYRSKWYNDYVVSVKSRIIFNPDTSKNQFSLQLNSVTPEDTAVYYCARVRQDYRSGPFDYWGQGTLVTVSS
VL: EIVMTQSPVTLSVSPGERATLSCWASQSVSSSLAWYQQKPGQAPRLLIYGASTRATGIPARFSGSGSGTGFTLTISSLQSEDFAVYYCQQYNNWPFTFGPGTKVDIK
FADU Avg F.A.B (Fold Above Background) [1]: 2 fold
SKBR3 Avg F.A.B (Fold Above Background) [2]: 3 fold
Raji Avg F.A.B (Fold Above Background) [3]: 59 fold
Internalization (37° C., 1 h) Qualitative Score [4]: +
Total Binding (4° C.) Qualitative Score [4]: +
Binding to hSTEAP1-GFP transfected HEK293 cells [5]: −
Binding to hSTEAP2-GFP transfected HEK293 cells [6]: +
Binding to hSTEAP3-GFP transfected HEK293 cells [7]: −
Binding to hSTEAP4-GFP transfected HEK293 cells [8]: −

B2: H1H11162N: human-Fc anti-STEAP2 antibody, HCVR/LCVR SEQ ID NOs 250/258 (antibody, V domains shown)
VH: QVQLQQSGPGLVKPSQTLSLTCAISGDSVSSNRAAWNWIRQSPSRGLQWLGRTYYRSKWYNDYAVSLRSRITINPVTSKNQVALHMNSVTPEDTAVYYCARAGIVVVPGPETFYYYDHGLDVWGQGTTVTVSS
VL: DIQMTQSPSSLSASVGDRVTITCRASQSIRSYLNWYQQKPGKAPELLIHAASSLQSGVPSRFSGSGSGTDFTLTISSLQPEDFASYYCQQSYSAPPITFGQGTRLEIK
modifications: human Fc
FADU Avg F.A.B (Fold Above Background) [1]: 3 fold
SKBR3 Avg F.A.B (Fold Above Background) [2]: 3 fold
Raji Avg F.A.B (Fold Above Background) [3]: 2 fold
Internalization (37° C., 1 h) Qualitative Score [4]: +++
Total Binding (4° C.) Qualitative Score [4]: +++

B3: BSSTEAP2/CD3-011: STEAP2×CD3 bispecific: anti-STEAP2 H1H7809N (SEQ 330), anti-CD3 H1H7203P (SEQ 1474), common LCVR of H1H7809N (antibody, V domains shown)
VH 1: QVQLVESGGGVVQPGRSLGLSCAASGFTFSSYGMHWVRQAPGKGLEWVAVIWYDGSNKYYVDSVKGRFTISRDNSKNTLYLQMNSLRAEDTAVYYCAREGLRFLENYYYYYGMDVWGQGTTVTVSS
VH 2: EVQLVQSGGGLVQPGRSLRLSCAASGFTFADYTMHWVRQTPGKGLEWVSGISWNSGSKDYADSVKGRFTISRDNAKNSLYLQMNSLRTEDTALYYCAKYGSGYGRYFFYAMDVWGQGTTVTVSS
VL: EIVLTQSPGTLSLSPGERATLSCRASQSISSTYLAWYQQRPGQAPRLLIYGASSRATGIPDRFSGSGSGTDFTLTISRLEPEDFAVYYCQQYGTSPYTFGQGTKLEIK
FACS PC3_STEAP2/1 EC50 [M] [9]: No Binding
Cynomolgus T cells EC50 [M] [10]: No Binding
EC50 [11]: 3.6e-12 M

B4: H1H7809N: human-Fc anti-STEAP2 antibody, HCVR SEQ ID NO: 330 (antibody, V domains shown)
VH: B3 VH 1
VL: B3 VL
FADU Avg F.A.B (Fold Above Background) [1]: 21 fold
SKBR3 Avg F.A.B (Fold Above Background) [2]: 37 fold
Raji Avg F.A.B (Fold Above Background) [3]: 3 fold
